Molecular target: human GLP-1R, wild-type, on cells (human) (UniProt P43220)
Sequence (P43220 24-463): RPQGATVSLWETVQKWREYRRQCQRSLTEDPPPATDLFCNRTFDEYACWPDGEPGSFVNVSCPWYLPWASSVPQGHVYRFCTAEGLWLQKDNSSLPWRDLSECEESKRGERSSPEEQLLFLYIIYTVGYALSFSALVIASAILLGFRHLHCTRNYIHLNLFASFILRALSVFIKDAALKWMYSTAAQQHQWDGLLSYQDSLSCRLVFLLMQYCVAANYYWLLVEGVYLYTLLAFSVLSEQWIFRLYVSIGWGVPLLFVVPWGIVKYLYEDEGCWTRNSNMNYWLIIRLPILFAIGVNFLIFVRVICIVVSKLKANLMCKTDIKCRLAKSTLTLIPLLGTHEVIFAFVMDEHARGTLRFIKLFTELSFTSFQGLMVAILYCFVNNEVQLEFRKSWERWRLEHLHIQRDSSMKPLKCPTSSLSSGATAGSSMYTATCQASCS

Substance	cAMP response, EC50, 0.1% BSA	other
non-acylated tirzepatide (peptide)	4.66 pM	0.9 pM
tirzepatide (peptide)		3.05 pM

Reference: publication PMC8881610
